Target: the molecule itself
Assay: native gel or EMSA

B1: CmlA, β-hydroxylase of the chloramphenicol biosynthetic pathway (wild type) (enzyme)
chain: MRYSLRQDIAVEPVIAGWYGWSYLLPPQTLARFVHNRFNRIVESYLDDPQVHAAAVRQRRMHGGPWIHAHEHRDAIEAWYRETAPRRERLDELFEAVRRLEEDILPRHHGECLDPVYQELPAALAGRVEVFYGRDNRTADYRFVEPLMYASEYYDESWQQVRFRPVTEDAREFALTTPMLEYGPEQLLVDVPLNSPLLDAVFRGGLTGTELDDLAARFGLDGERAARFASYFEPTPAASEAPAPASSSEEDVLEYVGHACVFARHRGTTFLVDPVLSYSGYPGGAENRFTFADLPERIDHLLITHNHQDHMLFETLLRIRHRVGRVLVPKSTNASLVDPGLGGILRRLGFTDVVEVDDLETLSCGSAEVVALPFLGEHGDLRIRSKTGWLIRFGERSVLFAADSTNISPTMYTKVAEVIGPVDTVFIGMESIGAAASWIYGPLYGEPLDRRTDQSRRLNGSNFPQAREIVDALEPDEVYVYAMGLEPWMGVVMAVDYDESHPAIVDSDLLVRHVQDKGGTAERLHLRRTLRL
For B1, the “stoichiometry N” value was 2.
